Laboratory results as given in publication doi:10.1101/2022.05.04.490607 (bioRxiv, 2022).

T1: recombinant 14-3-3ζ, P63104
T1 chain: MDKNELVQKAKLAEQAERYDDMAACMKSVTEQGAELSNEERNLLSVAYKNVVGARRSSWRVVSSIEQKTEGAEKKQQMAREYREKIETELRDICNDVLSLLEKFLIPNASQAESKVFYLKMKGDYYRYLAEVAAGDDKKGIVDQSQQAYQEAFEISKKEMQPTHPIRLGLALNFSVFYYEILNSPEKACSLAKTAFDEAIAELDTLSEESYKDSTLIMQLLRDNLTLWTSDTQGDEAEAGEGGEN


Experiments:
[1] = target: T1, recombinant 14-3-3ζ, P63104; assay: cryo-EM structure; details: remark: other sources report otherwise
[2] = target: HSP90 beta (full-length human, N-terminal HA tag) (human, UniProt P08238 1-724, phosphorylated (sites in Table S1)); assay: SEC-MALS
Sequence of HSP90 beta (full-length human, N-terminal HA tag) (P08238 whole entry): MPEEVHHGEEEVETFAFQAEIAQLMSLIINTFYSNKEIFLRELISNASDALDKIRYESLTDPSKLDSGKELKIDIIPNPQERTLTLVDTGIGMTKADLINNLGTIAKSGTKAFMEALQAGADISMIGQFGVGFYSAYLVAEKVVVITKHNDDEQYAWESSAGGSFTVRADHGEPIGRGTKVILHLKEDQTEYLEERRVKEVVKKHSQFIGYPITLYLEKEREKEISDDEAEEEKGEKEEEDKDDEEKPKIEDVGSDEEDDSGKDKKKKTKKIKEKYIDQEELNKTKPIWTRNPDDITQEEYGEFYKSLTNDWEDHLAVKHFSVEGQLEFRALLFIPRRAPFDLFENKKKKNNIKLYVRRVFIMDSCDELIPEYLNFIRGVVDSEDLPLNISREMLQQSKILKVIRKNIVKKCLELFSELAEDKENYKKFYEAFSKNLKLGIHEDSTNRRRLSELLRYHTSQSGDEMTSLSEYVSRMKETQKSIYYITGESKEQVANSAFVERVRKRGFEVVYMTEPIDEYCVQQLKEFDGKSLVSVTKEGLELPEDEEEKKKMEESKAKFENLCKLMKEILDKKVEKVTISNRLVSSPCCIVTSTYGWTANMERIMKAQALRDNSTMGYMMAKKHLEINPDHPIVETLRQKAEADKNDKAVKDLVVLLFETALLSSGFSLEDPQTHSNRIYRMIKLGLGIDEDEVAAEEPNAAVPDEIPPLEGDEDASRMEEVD

stoichiometry N [1] | binding result [2] | Binder
2 | – | recombinant 14-3-3ζ, P63104 1-245 (natural protein) MDKNELVQKAKLAEQAERYDDMAACMKSVTEQGAELSNEERNLLSVAYKNVVGARRSSWRVVSSIEQKTEGAEKKQQMAREYREKIETELRDICNDVLSLLEKFLIPNASQAESKVFYLKMKGDYYRYLAEVAAGDDKKGIVDQSQQAYQEAFEISKKEMQPTHPIRLGLALNFSVFYYEILNSPEKACSLAKTAFDEAIAELDTLSEESYKDSTLIMQLLRDNLTLWTSDTQGDEAEAGEGGEN
– | binds | CDC37 (full-length human, C-terminal Myc-DDK tag) (natural protein, phosphoserine at S13 (seen in the cryo-EM map; further sites in Table S1)) MVDYSVWDHIEVSDDEDETHPNIDTASLFRWRHQARVERMEQFQKEKEELDRGCRECKRKVAECQRKLKELEVAEGGKAELERLQAEAQQLRKEERSWEQKLEEMRKKEKSMPWNVDTLSKDGFSKSMVNTKPEKTEEDSEEVREQKHKTFVEKYEKQIKHFGMLRRWDDSQKYLSDNVHLVCEETANYLVIWCIDLEVEEKCALMEQVAHQTIVMQFILELAKSLKVDPRACFRQFFTKIKTADRQYMEGFNDELEAFKERVRGRAKLRIEKAMKEYEEEERKKRLGPGGLDPVEVYESLPEELQKCFDVKDVQMLQDAISKMDPTDAKYHMQRCIDSGLWVPNSKASEAKEGEEAGPGDPLLEAVPKTGDEKDVSV
